Consider four molecules from patent US20110003880A1, “Compositions and methods for inhibiting optic nerve damage” (priority 2006, published 2011).

In data set [1] the test system is PAD 2. The data set can be described thus: Modulation of intracellular calcium and PAD 2 expression in pressure treated astrocytes. The data set is classed as cell-based, rat. To be noted: astrocytes subjected to 40 mm Hg for 5 hours; 50-200 nM. On the procedure:
FIGS. 9A-9B. Modulation of intracellular calcium concentration and PAD 2 expression. The astrocytes were subjected to 40 mm Hg for 5 hours and restored to normal pressure except controls. Pressure treated cells were subjected to (FIG. 9A) indicated concentrations of BAPTA-AM for 24 hours or (FIG. 9B) indicated concentrations of Thapsigargin. Total protein were extracted and transferred on PVDF membrane after SDS-PAGE separation and probed with antibodies to PAD 2 and GPDH, secondary antibodies coupled with IR-700 dye allowed scanning and detection.
Astrocytes from Sprague Dawley rats (Harlan, Indianapolis, Ind.) brain cortex were used for these studies. Mixed glial cell suspensions were prepared from the P3 rat cortex regions following published procedures (Fuss, B., et al., Dev Biol., 218:259-74 (2000)) from which enriched GFAP positive cells were obtained using immunopanning (Yang, P., et al., Brain Res Brain Res Protoc. 12:67-76 (2003)). The astrocytes were exposed to a pressure of 40 mm of Hg for five hours (Yang, J. L., et al., Exp Eye Res. 56:567-74 (1993); Salvador-Silva, M., et al., Glia. 45:364-77 (2004)). Briefly, the cells plated in six well plates (Costar, Cambridge, Mass., USA) at a density of 3-10×10^3 cells/well and grown to semiconfluence in 2 days were incubated with serum free medium overnight. […]
In general terms: Calcium assays in cells follow changes in intracellular calcium, usually with a dye or a luminescent sensor.

The subject of data set [2] is PAD2. Nature of the data set: Anti-PAD2 Western analysis of optic nerve from glaucomatous donors. The data set is classed as in vivo, human. Particulars: 85M POAG donor, trabeculectomy plus verapamil; compared with other POAG eyes (86M and 76F). The protocol: FIGS. 5A-5D. Elevated level of PAD2 and citrulline in response to pressure. […] Protein extracted from the optic nerve of cadaver Caucasian donor eyes, age and gender are as indicated. All glaucomatous donors suffered elevated IOP and were subjected to surgical intervention except the 76F donor. The 85M donor also received verapamil, a calcium modulator. FIG. 5B, Representative Western analyses with anti-PAD2 of rat brain astrocytes subjected to 40 mm Hg pressure for 5 h then returned to atmospheric pressure for up to 4 days as indicated. FIG. 5C, Representative Western analysis with anti-citrulline of protein extracts (5 μg) from astrocytes subjected to elevated pressure as in FIG. 5B. […]
For these analyses previously described mouse monoclonal antibody (mAb) against PAD2 (Koike, H., et al., Biosci Biotechnol Biochem. 58:2286-7(1994); Koike, H., et al., Biosci Biotechnol Biochem. 59:552-4(1995)) was used. […] For quantitative Western analyses, anti-mouse and anti-rabbit secondary antibody linked to 700 nm or 800 nm IR-dyes were used on an Odyssey Infrared Imaging system according to the manufacturer (Li-Cor Biosciences, Lincoln, Neb.). […]
Other donor eyes that had undergone either surgical or combined surgical and pharmacological intervention to relieve elevated IOP were also analyzed for PAD2. […]

Data set [3] deals with PAD2. The data set is classed as cell-based, rat. On the procedure: Astrocytes from Sprague Dawley rats (Harlan, Indianapolis, Ind.) brain cortex were used for these studies. Mixed glial cell suspensions were prepared from the P3 rat cortex regions following published procedures (Fuss, B., et al., Dev Biol., 218:259-74 (2000)) from which enriched GFAP positive cells were obtained using immunopanning (Yang, P., et al., Brain Res Brain Res Protoc. 12:67-76 (2003)). The astrocytes were exposed to a pressure of 40 mm of Hg for five hours (Yang, J. L., et al., Exp Eye Res. 56:567-74 (1993); Salvador-Silva, M., et al., Glia. 45:364-77 (2004)). Briefly, the cells plated in six well plates (Costar, Cambridge, Mass., USA) at a density of 3-10×10^3 cells/well and grown to semiconfluence in 2 days were incubated with serum free medium overnight. A closed pressurized chamber (5% carbon dioxide) equipped with a manometer was used to subject the cells to elevated pressure. Cells were placed in the chamber and the pressure was elevated to 40 mm Hg. The chamber was subsequently placed in a tissue culture incubator at 37° C. Control cells from identical passage of cell lines were simultaneously incubated in a tissue culture incubator at atmospheric pressure at 37° C. The cells were incubated for 5 h or 1-4 days after pressure treatment. After incubation, cells were trypsinized and subjected to culture or Western analyses. For culture, the cells were plated on a cover slip and allowed 16 hours recovery period and subjected to immunohistochemistry using mouse monoclonal PAD2 and rabbit polyclonal GFAP antibodies. The cells were permeabilized with 200 μl of 0.2% Triton X-100 in phosphate buffer saline pH 7.5 for 1 hour after fixation with 4% paraformaldehyde for 1 hour. Western analyses were performed using antibodies to PAD2 and citrulline as described above.
For treatment of rat cortex astrocytes, shRNA against PAD2 (OpenBiosystems, Cat. #RHS 1764-9214220) was procured from OpenBiosystems in pShag Magic version 2.0 vector (OpenBiosystems). This shRNA contains the sequence (5′[…]′3) (SEQ ID NO: 7) from the coding region of PAD2 (see FIG. 14). For a negative control, we used a non-silencing shRNA sequence cloned into pShag Magic 2.0 (OpenBiosystems, cat. #RHS1703) from OpenBiosystems verified to contain no homology to known mammalian genes. About 30% confluent cells (3000 primary astrocytes) (Lee, J. H., et al., Glia., 50:66-79 (2005)) were transfected using SuperFect transfection reagent, purified vector (5 μg) DNA (Qiagen, Valencia, Calif.) and the manufacturer's recommended protocols. The post transfected astrocytes were selected on geneticin (10 μg/μl). The primary astrocytes were subjected to pressure (40 mm of Hg) and transfected with shRNA on plates immediately after they were brought to normal atmospheric pressure.

The mark [4] stands for this setting: astrocytes subjected to 40 mm Hg, transfected with shRNA immediately after return to atmospheric pressure, vs non-specific shRNA.

On to `CC(=O)OCOC(=O)CN(CC(=O)OCOC(C)=O)c1ccccc1OCCOc1ccccc1N(CC(=O)OCOC(C)=O)CC(=O)OCOC(C)=O` [BAPTA-AM], for which the “expression of PAD 2 protein (Western)” value in data set [1] is given as “reduces expression of PAD 2 protein”.
The same measure, in the same setting: next, `C/C=C(/C)C(=O)O[C@H]1C(C)=C2[C@H]([C@@H]1OC(=O)CCCCCCC)[C@@](C)(OC(C)=O)C[C@H](OC(=O)CCC)[C@@]1(O)[C@H]2OC(=O)[C@@]1(C)O` [Thapsigargin]: “seems not to show a great increase in PAD 2 expression”.
`COc1ccc(CCN(C)CCCC(C#N)(c2ccc(OC)c(OC)c2)C(C)C)cc1OC` (centres unmarked) [verapamil]: the “optic nerve PAD2 level (Western, relative to GPDH)” value in data set [2] was “appeared lower”.

B1: PAD2 specific shRNA: shRNA against PAD2 (OpenBiosystems, Cat. #RHS 1764-9214220) in pShag Magic version 2.0 vector, SEQ ID NO: 7 (nucleic acid)
chain: TGCTGTTGACAGTGAGCGACAGCCTTGACTCATTTGGAAATAGTGAAGCCACAGATGTATTTCCAAATGAGTCAAGGCTGGTGCCTACTGCCTCGGA
For B1, the “Differences in cell morphology due to reduction in mRNA” value in data set [3] is on record as “not observed”. In data set [3] (setting [4]), the “PAD2 expression (anti-PAD2 Western analysis)” value was “reduced PAD2 expression” and the “citrullination (anti-citrulline Western analysis)” value is listed as “reduced citrullination”. Also, the “PAD 2 by immunohistochemical analysis” value in data set [3] (isolated astrocytes, 5 hours or 4 days at atmospheric pressure after 40 mm Hg, compared to untreated group) is “reduced”. For the same molecule, in data set [3] (pressure treated astrocytes transfected with shRNA, within the sensitivity of detection), the “PAD2 mRNA (Northern analysis of total RNA)” value is recorded as “completely removed”.
